The assay deals with mKate. Put plainly: SEC; gel filtration on a 1x90 cm Econo-column packed with Sephacryl-S200, equilibrated with 25 mM Tris-HCl pH 7.5, 150 mM NaCl; self-association of the purified fluorescent protein. (SEC sorts molecules by how far they enter the pores of the column.)

For orientation: stoichiometry N means a count of units in the complex or per binding partner. mKate displayed a stoichiometry N of 2.
